Substitutions are numbered along the chain they refer to.
Key:
FOLR1-Fc [1] = target: T1, FOLR1-Fc (UniProt P15328 25-234, limits assumed); experiment: ELISA, FOLR1-Fc coated, antibody titrated (experiment with vAb3, vAb4, vAb5)
T1 construct: also called FOLR1 (ELISA coating); not shown: Fc part
Protocol: (§1) For the purpose of comparing the binding affinities of the primarily selected clones with each other, ELISA was performed at different clone concentrations in the following manner. 25 μL of FOLR1 was added to each well of a 96-well plate at a concentration of 1 μg/mL, coated on the plate at room temperature for 1 hour, and then blocked with 180 μL of 3% skim milk at room temperature for 1 hour. During blocking, samples to be used as primary antibodies were prepared. As primary antibodies, samples selected by screening were used. The samples were diluted to a concentration of 0.1 to 100 nM (0, 0.1, 0.3, 1, 3, 10, 30, and 100 nM) and cold-stored until use. After blocking, 3% skim milk was removed, and 25 μL of the primary antibody was added to each well and allowed to react at room temperature for 1 hour or more. After completion of the reaction, each well was washed three times with PBS-Tween20 (0.1%) buffer. […] After about 5 minutes, 25 μL of 1 M H₂SO₄ was added to each well to stop the reaction, and the absorbance at a wavelength of 450 nm was measured. From the measurement results, the EC (Effector concentration) value was calculated using the GraphPad Prism 7 program.
(§2) The measured values are obtained in different experiments for comparison with the parent antibody.

[2] = target: T2, Folate receptor alpha (FOLR1) (human, UniProt P15328 25-234, limits assumed); experiment: SPR, Biacore3000, FOLR1 immobilised; the parent is the reference
T2 construct: Antigen printed simply as FOLR1 for the panning, the clone ELISA and the SPR chip; also called human FOLR1; folate receptor-α
Protocol: (§3) To measure the binding affinity of the selected clone for FOLR1, SPR measurement was performed using a Biacore3000. Before each sample was loaded, a CM5 sensor chip was activated with 0.1 M NHS/0.4 M EDC, and then FOLR1 (20 μg/mL in 10 mM acetate, pH 5.0) was immobilized thereon. Then, unreacted NHS was deactivated with 1 M ethanolamine. 250 μL of each sample was prepared at concentrations of 1, 2, 5, 10, 20 and 40 nM, and association and dissociation sensorgrams were obtained while each sample was flushed at 30 μl/min. The sensor chip was regenerated with 10 mM glycine (pH 2.1). The obtained sensorgrams were analyzed using the BIAevaluation software, and the KD values were calculated.
(§4) To measure the binding affinity of the modified antibody vAb1 produced in Example 2 for FOLR1, an SPR assay was performed using a Biacore3000, in the same manner as described in Examples 1-5. The sensorgram was analyzed using the BIAevaluation software, and the KD value was calculated. […] This value is similar to the relative ratio of the values obtained using ELISA.

FOLR1-Fc [3] = target: T1, FOLR1-Fc; experiment: ELISA, FOLR1-Fc coated, antibody titrated (experiment with vAb2)
Protocol: as §1, §2

[4] = target: T2, Folate receptor alpha (FOLR1); experiment: SPR, Biacore3000, FOLR1 immobilised on CM5 chip, antibody as analyte
Protocol: as §3, §4

FOLR1-Fc [5] = target: T1, FOLR1-Fc; experiment: ELISA, FOLR1-Fc coated, antibody titrated (experiment with vAb1)
Protocol: as §1, §2

FOLR1-Fc [6] = target: T1, FOLR1-Fc; experiment: ELISA, FOLR1-Fc coated (experiment with vAb2); the parent is the reference
FOLR1-Fc [7] = target: T1, FOLR1-Fc; experiment: ELISA, FOLR1-Fc coated (experiment with vAb3, vAb4, vAb5); the parent is the reference
Protocol: as §1, §2

FOLR1-Fc [8] = target: T1, FOLR1-Fc; experiment: ELISA, FOLR1-Fc coated (experiment with vAb1); the parent is the reference
FOLR1-Fc [9] = target: T1, FOLR1-Fc; experiment: ELISA, FOLR1-Fc coated
Protocol: (§5) For the purpose of comparing the binding affinities of the primarily selected clones with each other, ELISA was performed at different clone concentrations in the following manner. 25 μL of FOLR1 was added to each well of a 96-well plate at a concentration of 1 μg/mL, coated on the plate at room temperature for 1 hour, and then blocked with 180 μL of 3% skim milk at room temperature for 1 hour. During blocking, samples to be used as primary antibodies were prepared. As primary antibodies, samples selected by screening were used. The samples were diluted to a concentration of 0.1 to 100 nM (0, 0.1, 0.3, 1, 3, 10, 30, and 100 nM) and cold-stored until use. After blocking, 3% skim milk was removed, and 25 μL of the primary antibody was added to each well and allowed to react at room temperature for 1 hour or more. After completion of the reaction, each well was washed three times with PBS-Tween20 (0.1%) buffer. As a secondary antibody, HA-HRP was diluted 3,000-fold with 3% skim milk, and 25 μL of the dilution was added to each well and allowed to react at room temperature for 1 hour or more. After completion of the reaction, each well was washed three times with PBS-Tween20 (0.1%), and 25 μL of substrate TMB was added to each well to confirm color development. After about 5 minutes, 25 μL of 1 M H₂SO₄ was added to each well to stop the reaction, and the absorbance at a wavelength of 450 nm was measured. From the measurement results, the EC (Effector concentration) value was calculated using the GraphPad Prism 7 program.
as §2

FOLR1-Fc [10] = target: T1, FOLR1-Fc; experiment: ELISA, FOLR1-Fc coated, antibody titrated
Protocol: as §5, §2

[11] = target: T2, Folate receptor alpha (FOLR1); experiment: screening ELISA of panned phage library clones on FOLR1
[12] = target: T2, Folate receptor alpha (FOLR1); experiment: SPR, Biacore3000, FOLR1 immobilised
Protocol: as §3, §4

T2 sequence (P15328 25-234 limits assumed): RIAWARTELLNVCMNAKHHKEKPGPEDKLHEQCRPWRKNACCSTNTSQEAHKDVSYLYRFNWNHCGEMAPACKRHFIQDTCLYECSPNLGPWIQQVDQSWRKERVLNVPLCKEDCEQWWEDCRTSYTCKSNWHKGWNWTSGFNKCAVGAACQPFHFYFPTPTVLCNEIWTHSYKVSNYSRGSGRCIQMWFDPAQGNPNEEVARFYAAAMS
T1 sequence (P15328 25-234 limits assumed): as above

B1: Parent antibody (anti-FOLR1 antibody of US2005/0232919 A1) (antibody, V domains shown)
VH: EVQLVESGGGVVQPGRSLRLSCSASGFTFSGYGLSWVRQAPGKGLEWVAMISSGGSYTYYADSVKGRFAISRDNAKNTLFLQMDSLRPEDTGVYFCARHGDDPAWFAYWGQGTPVTVSS
VL: DIQLTQSPSSLSASVGDRVTITCSVSSSISSNNLHWYQQKPGKAPKPWIYGTSNLASGVPSRFSGSGSGTDYTFTISSLQPEDIATYYCQQWSSYPYMYTFGQGTKVEIK
notes: also called WT
For B1, the EC50 (FOLR1-Fc [1]) was 3.04 ng/mL, the “Relative Potency” value [2] was 1 fold (reference) and the EC50 (FOLR1-Fc [3]) was 11.8 ng/mL. For the same binder, the Ka [4] was 1.05e+09 M⁻¹, the Kd [4] was 0.96 nM and the koff [4] was 0.000401 s⁻¹. For the same binder, the kon [4] was 419000 M⁻¹ s⁻¹, the EC50 (FOLR1-Fc [5]) was 11 ng/mL and the “Relative Potency” value (FOLR1-Fc [6]) was 1 fold (reference). For the same binder, the “Relative Potency” value (FOLR1-Fc [7]) was 1 fold (reference) and the “Relative Potency” value (FOLR1-Fc [8]) was 1 fold (reference).

B2: Modified antibody vAb5 (antibody, V domains shown)
VH: B1 VH with P103V
VL: B1 VL
notes: Carries modified CDR-H3
With B2 the “Relative Potency” value (FOLR1-Fc [9]) was 1.42 fold against parent antibody and the EC50 (FOLR1-Fc [10]) was 2.17 ng/mL.

B3: Modified antibody vAb3 (antibody, V domains shown)
VH: B1 VH
VL: B1 VL with V25A, S28G, I29L, N32S, N33Y
notes: Carries modified CDR-L1
In the case of B3, the “Relative Potency” value (FOLR1-Fc [9]) is reported as 3.99 fold against parent antibody and the EC50 (FOLR1-Fc [10]) is reported as 0.77 ng/mL.

B4: Modified antibody vAb4 (antibody, V domains shown)
VH: B1 VH
VL: B1 VL with N54S, L55R
notes: Carries modified CDR-L2
For B4, the “Relative Potency” value (FOLR1-Fc [9]) was 1.94 fold against parent antibody and the EC50 (FOLR1-Fc [10]) was 1.59 ng/mL.

B5: CDR-L2 library clones E9, G6 (Fab, V domains shown)
VH: B1 VH
VL: B1 VL with T52A, N54S, S57T
notes: Fab clones from the phage library on the parent Fab template; Only the CDR-L2 is printed
B5: binds [11].

B6: CDR-L1 library clone D5 (Fab, V domains shown)
VH: B1 VH
VL: B1 VL with S24R, S28G
notes: Fab clone from the phage library on the parent Fab template; Only the CDR-L1 is printed
B6: binds [11].

B7: CDR-L1 library clone H1 (Fab, V domains shown)
VH: B1 VH
VL: B1 VL with V25A, N32S, N33Y
notes: as for B6
B7: binds [11].

B8: CDR-L1 library clone F3 (Fab, V domains shown)
VH: B1 VH
VL: B1 VL with S24R, V25A, S28G, I29V
notes: as for B6
B8: binds [11].

B9: CDR-L2 library clone C3 (Fab, V domains shown)
VH: B1 VH
VL: B1 VL with G51A, L55R, A56E
notes: Fab clone from the phage library on the parent Fab template; Only the CDR-L2 is printed
B9: binds [11].

B10: CDR-L2 library clone G3 (Fab, V domains shown)
VH: B1 VH
VL: B1 VL with G51A
notes: as for B9
B10: binds [11].

B11: CDR-L1 library clone H7 (Fab, V domains shown)
VH: B1 VH
VL: B1 VL with I29L, N32S
notes: as for B6
B11: binds [11].

B12: CDR-L2 library clone B1 (Fab, V domains shown)
VH: B1 VH
VL: B1 VL with G51A, N54S, L55R, S57T
notes: as for B9
B12: binds [11].

B13: CDR-L2 library clone H2 (Fab, V domains shown)
VH: B1 VH
VL: B1 VL with G51T, T52A, N54S, L55R
notes: as for B9
B13: binds [11].

B14: Modified antibody vAb2 (antibody, V domains shown)
VH: B1 VH
VL: B1 VL with V25A, S28G, I29L, N32S, N33Y, N54S, L55R
notes: Carries modified CDR-L1 and CDR-L2
For B14, the “Relative Potency” value (FOLR1-Fc [9]) was 3.04 fold against parent antibody and the EC50 (FOLR1-Fc [10]) was 3.94 ng/mL.

B15: Modified antibody vAb1 (antibody, V domains shown)
VH: B1 VH with P103V
VL: B1 VL with V25A, S28G, I29L, N32S, N33Y, N54S, L55R
notes: Carries modified CDR-H3, CDR-L1 and CDR-L2
For B15, the “Relative Potency” value (FOLR1-Fc [9]) was 4.48 fold against parent antibody, the “Relative Potency” value [12] was 4 fold against parent antibody and the Ka [4] was 4.17e+09 M⁻¹. It also gave a Kd [4] of 0.24 nM, a koff [4] of 0.000147 s⁻¹ and a kon [4] of 612000 M⁻¹ s⁻¹. The EC50 (FOLR1-Fc [10]) was 2.45 ng/mL.

B16: CDR-L2 library clone C10 (Fab, V domains shown)
VH: B1 VH
VL: B1 VL with G51A, N54S, S57T
notes: as for B9
B16: binds [11].

B17: CDR-L1 library clone D7 (Fab, V domains shown)
VH: B1 VH
VL: B1 VL with S24R, V25A, S28G, I29L
notes: as for B6
B17: binds [11].

B18: CDR-L1 library clone C7 (Fab, V domains shown)
VH: B1 VH
VL: B1 VL with V25A, I29L, N32S, N33Y
notes: as for B6
B18: binds [11].
